The supplement of paper PMC7877785
± gives the uncertainty stated by the source.

Assay: self-splicing fitness, log relative to wild type (ln ratio); higher = more splicing; Tetrahymena group I intron in knt gene, E. coli kanamycin selection, DiMSum; sequences stand for … in CUCUCU…GGAGGGAAAAGUUAUCAGGCAUGCACCUGGUAGCUAGUCUUUAAACCAAUAGAUUGCAUCGGUUUAAAAGGCAAGACCGUCAAAUUGCGGGAAAGGGGUCAACAGCCGUUCAGUACCAAGUCUCAGGGGAAACUUUGAGAUGGCCUUGCAAAGGGUAUGGUAAUAAGCUGACGGACAUGGUCCUAACCACGCAGCCAAGUCCUAAGUCAACAGAUCUUCUGUUGAUAUGGAUGCAGUUCACAGACUAAAUGUCGGUCGGGGAAGAUGUAUUCUUCUCAUAAGAUAUAGUCGGACCUCUCCUUAAUGGGAGCUAGCGGAUGAAGUGAUGCAACACUGGAGCCGCUGGGAACUAAUUUGUAUGCGAAAGUAUAUUGAUUAGUUUUGGAGUACUCGUGGUCG
In short: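 The eight P1ex-region nucleotides of an intron in the knt kanamycin-resistance gene on pET-22b(+) were all randomised and the library put into E. coli BL21(DE3). Six replicate transformations were grown overnight at 37°C or 30°C on LB agar with or without 25 μg/mL kanamycin, together with 100 μg/mL carbenicillin, 50 μM IPTG and 0.2% rhamnose. Colonies were pooled and amplicon-sequenced on an Illumina HiSeq 2500. Fitness from DiMSum is the error-weighted combination of wild-type-normalised replicate fold changes, kanamycin over none.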

Row | Sequence | self-splicing fitness (ln) (30 °C) | self-splicing fitness (ln) (37 °C)
1 | CGUGAGCAAUAUUACGAUGA | -3.64 ± 0.23 | -2.04 ± 0.17
2 | CGUGAGCAAUAUUACGAUGC | -0.111 ± 0.43 | -2 ± 0.48
3 | CGUGAGCAAUAUUACGCAGA |  | -1.49 ± 0.38
4 | CGUGAGCAAUAUUACGCAGG | -1.54 ± 0.11 | -2.14 ± 0.15
5 | CGUGAGCAAUAUUACGCGGA |  | -1.62 ± 0.39
6 | CGUGAGCAAUAUUACGGCCG | -1.92 ± 0.43 | 
7 | CGUGAGCAAUAUUACGGGGU | -3.62 ± 0.2 | -3.32 ± 0.26
8 | CGUGAGCAAUAUUACGGUAG | -1.84 ± 0.11 | -1.11 ± 0.11
9 | CGUGAGCAAUAUUACGGUAU | -3.54 ± 0.25 | -3.1 ± 0.34
10 | CGUGAGCAAUAUUACGGUGC | -4.97 ± 0.41 | -3.39 ± 0.17
11 | CGUGAGCAAUAUUACGGUGU | -3.79 ± 0.43 | -1.98 ± 0.22
12 | CGUGAGCAAUAUUACGUAGA | -3.22 ± 0.2 | -2.89 ± 0.22
13 | CGUGAGCAAUAUUACGUAGU | -4.5 ± 0.36 | -2.19 ± 0.2
14 | CGUGAGCAAUAUUACGUCAG | -1.86 ± 0.16 | -0.364 ± 0.15
15 | CGUGAGCAAUAUUACGUCGG | -0.475 ± 0.11 | -0.606 ± 0.12
16 | CGUGAGCAAUAUUACGUCUA | -2.99 ± 0.37 | -1.59 ± 0.21
17 | CGUGAGCAAUAUUACGUGCC |  | -1.78 ± 0.39
18 | CGUGAGCAAUAUUACGUGCG | -3.21 ± 0.24 | -2.6 ± 0.32
19 | CGUGAGCAAUAUUACGUGGG | -2.91 ± 0.14 | -1.99 ± 0.11
20 | CGUGAGCAAUAUUACGUUAA | -4 ± 0.31 | -3.55 ± 0.3
21 | CGUGAGCAAUAUUACGUUCC | -3.37 ± 0.31 | 
22 | CGUUAGCAAUAUUACGCAAC | -2.61 ± 0.49 | -2.01 ± 0.35
23 | CGUUAGCAAUAUUACGCACA | -1.33 ± 0.17 | -0.0289 ± 0.28
24 | CGUUAGCAAUAUUACGCAGG | -1.3 ± 0.1 | -1.26 ± 0.16
25 | CGUUAGCAAUAUUACGCAGU |  | -2.29 ± 0.37

Row | Sequence | self-splicing fitness (ln) (30 °C) | self-splicing fitness (ln) (37 °C)
26 | CGUUAGCAAUAUUACGCAUA |  | -1.37 ± 0.23
27 | CGUUAGCAAUAUUACGCCUC | -3.03 ± 0.49 | -2.48 ± 0.32
28 | CGUUAGCAAUAUUACGCGCC | -2.21 ± 0.39 | -1.05 ± 0.27
29 | CGUUAGCAAUAUUACGGAAG | -1.02 ± 0.12 | -0.829 ± 0.12
30 | CGUUAGCAAUAUUACGGACC | -0.382 ± 0.14 | 0.675 ± 0.16
31 | CGUUAGCAAUAUUACGGAGA | -2.64 ± 0.4 | -1.53 ± 0.43
32 | CGUUAGCAAUAUUACGGAGC | -3.81 ± 0.47 | -1.35 ± 0.47
33 | CGUUAGCAAUAUUACGGCCG | -1.84 ± 0.41 | -0.176 ± 0.35
34 | CGUUAGCAAUAUUACGGGCG | -3.04 ± 0.24 | -2.38 ± 0.3
35 | CGUUAGCAAUAUUACGGUAA | -1.58 ± 0.26 | -0.129 ± 0.28
36 | CGUUAGCAAUAUUACGGUUG | -0.758 ± 0.11 | 0.388 ± 0.13
37 | CGUUAGCAAUAUUACGUACC | -1.39 ± 0.15 | -1.09 ± 0.18
38 | CGUUAGCAAUAUUACGUAGG | -0.104 ± 0.093 | -0.845 ± 0.14
39 | CGUUAGCAAUAUUACGUGUA | -3.37 ± 0.25 | -3.03 ± 0.34
40 | CUAAAGCAAUAUUACGACCA | -2.78 ± 0.23 | 0.487 ± 0.23
41 | CUAAAGCAAUAUUACGAGCC | -1.33 ± 0.18 | -0.475 ± 0.44
42 | CUAAAGCAAUAUUACGAGUG | 0.178 ± 0.047 | 0.456 ± 0.077
43 | CUAAAGCAAUAUUACGAUAA | -2.17 ± 0.14 | -0.422 ± 0.12
44 | CUAAAGCAAUAUUACGAUGU | -3.84 ± 0.18 | -2.58 ± 0.2
45 | CUAAAGCAAUAUUACGCAAC | -3.32 ± 0.29 | -3.03 ± 0.38
46 | CUAAAGCAAUAUUACGCAUA | -3.66 ± 0.23 | -2.65 ± 0.24
47 | CUAAAGCAAUAUUACGCAUG | -0.592 ± 0.071 | -0.193 ± 0.089
48 | CUAAAGCAAUAUUACGCUAC | -3.59 ± 0.37 | -2.59 ± 0.26
49 | CUAAAGCAAUAUUACGCUAG | -3.41 ± 0.24 | -1.84 ± 0.13
50 | CUAAAGCAAUAUUACGGAGU | -4.03 ± 0.15 | -3.19 ± 0.23
